# Tested on: MS2 coat protein
# Test: apparent KD of MS2 coat protein; designed switch direction (-1 OFF switch, 1 ON switch): -1; higher = weaker reporter binding
# In short: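 For each design, the apparent KD is the median over clusters of curves fitted to normalised cluster fluorescence. Clusters held RNA switches with common flanks, transcribed on Illumina chips by stalled E. coli RNA polymerase. These were titrated with SNAP-549-labelled MS2 coat protein, doubling from 0.7 or 1.5 nM to 3 µM, without input, with 200 uM small-molecule ligand, or with an oligonucleotide input.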
# [1] = input ligand: microRNA oligo, concentration not stated
# [2] = Eterna round: R95, input ligand: FMN 200 uM
# [3] = Eterna round: R95, input ligand: microRNA oligo, concentration not stated
# [4] = Eterna round: R95, input ligand: none
Sequence,apparent KD of MS2 coat protein (input ligand: FMN 200 uM) [nM],apparent KD of MS2 coat protein [1] [nM],apparent KD of MS2 coat protein (input ligand: none) [nM],apparent KD of MS2 coat protein [2] [nM],apparent KD of MS2 coat protein [3] [nM],apparent KD of MS2 coat protein [4] [nM]
"GUCCUGGAUUAUCACAAGCACAUGAGGAUCACCCAUGUCAUGGGUGGAUCCCUAAAUGGGUAUUCUGCUCGUCUUAU [Cac Sensor turn off v1 sub11] (Eterna round: R97, puzzle: Sensor, turn-off variant 1)",417,,,,,
"AUGGGUACUUUCGGAGCGACAUGAGGAUCACCCAUGUAUAUUGAGGAUAUCCACUACUAAGGACGGGAGAAGGCAGUGUACUGU [Ex NG3 #81] (Eterna round: R96, puzzle: Exclusion NG 3)",53.3,29.2,46.4,,,
"UACAUGAGGAUCACCCAUGUUUUGUCGUGUAUGGUAUUUAUCUAGGAUAUCAAUUAAUUUAUUUAUGAGAAGGAGAAUAUUAAU [JMF's solution 14] (Eterna round: R96, puzzle: Exclusion NG 3)",40.3,28.1,38.3,,,
"GGACCACAUGAGGAUCACCCAUGUCAGGAUAUGACGGCGUCGGCGAAAGCGGAGGCGGUCAGAAGGGACGGUAA [AK-MS2ROC-r4-exclusion1-10] (Eterna round: R97, puzzle: Exclusion 1)",72.3,,32.4,,,
"GGCUGACAUGUAGGAUAUCUGCACGAUUAGUGCAGAGAAGGACAUGAGGAUCACCCAUGUAUAGCGACUUCGGUCGCAACAGCC [ENG1/2-A1] (Eterna round: R96, puzzle: Exclusion NG 1)",155,31,40,,,
"AACUAUGAAGGAUAUACAUGAGGAUCACCCAUGUUGAACUUGGCAUGUGCUCACAGAUGUAGAAGGUCAACCGU [Eternabot (Original) Solution 22] (Eterna round: R97, puzzle: Exclusion 3)",128,,43,,,
CAGAAUUGAGGAUAUGAUCAAUUUAACAUGAGGAUCACCCAUGUAUGGGAAUGAUUCUGAUCAGAAGGCGAUUCUA [Exclusion 5: 1:b] (puzzle: Exclusion 5),,,,289,408,79
"CCAUGGGAGCGAGGAUAUAGCCCAUGGGAAGAGCUAGAAGGCGCAGACAUGAGGAUCACCCAUGUGUUCAUGAGGAGGUGGACA (Eterna round: R96, puzzle: Exclusion NG 1)",95.5,47.9,73.7,,,
GGAUCACAUGUCAGGAUAUCCGGGCAGAGUGGCCAGGAGAAGGGACAUGAGGAUCACCCAUGUUGCUUAAAAUU [Bierorerqu] (puzzle: Brourd's mod of Exclusion 4),,,,34.8,69.9,157
"AGUCGGUCAGGAUAUGCAAUUGUGGACAUGAGGAUCACCCAUGUAACGUGGGCCUGGUUUGUAGAAGGGACGUGCA [EX5 #89] (Eterna round: R97, puzzle: Exclusion 5)",105,,89,,,
GAGGAACAUGAGGAUCACCCAUGUAAGGAUAUGCAUAGCGAGGUAGUAGAAGGUGAAGGCAGAAGGUACACGGA [JR_Exclu1_Sub076] (puzzle: Exclusion 1),,,,31.3,34.2,43.8
AAAAGACAUGAGGAUCACCCAUGUGAGGAUAUUGGAAGAAAGAAAAGAAAGAAAGAAACGAGAAGGCACAAAAG [Exclusion] (puzzle: Exclusion 1),,,,68.2,60.9,51.9
"AGAGUGCUGCGAGGAUAUACAUGAGGAUCACCCAUGUAUUAGUGUGAGGCAAAGCCUCACACAAUGUAGAAGGCGCAGUACUCA [Mat - Exclusion NG 2 - Mod of JL - D9] (Eterna round: R96, puzzle: Exclusion NG 2)",8.83,12.2,18.4,,,
"GAUUAUGCGAGCUUUAGGGACAUGAGGAUCACCCAUGUUCGUCUUAUUAGUCUGGGUGCACUAACAUACCUAAAUCU [JMF 37] (puzzle: Sensor v3, turn-off variant 1)",,,,135,81.4,153
"GCUUGUGGGCAAGGAUAUCCUGCGCUGUUCUGGUUCGUGUCUGUCACAUGAGGAUCACCCAUGUGGGAGAAGGUGCCUUUGGCG [Design 65] (Eterna round: R96, puzzle: Exclusion NG 2)",12.5,10.5,13.2,,,
"UAAUUGAUUAAUAGAUUAUACAUGAGGAUCACCCAUGUAGGUCCUACGUGCCAUUUAAGUAGCUCGUCUUAUUCCCA [Sensor-V1 #67] (Eterna round: R97, puzzle: Sensor, turn-off variant 1)",40.2,,45.6,,,
"CCAAGCUAUUUCAUAACAAACAUGAGGAUCACCCAUGUGUAAGCAAUUAUGUUUGGGCUCUUUAGUGCUCGUCUUAU [JR_STOV1_Sub046] (Eterna round: R97, puzzle: Sensor, turn-off variant 1)",19.2,,19.2,,,
"CAAAGUUGGUAAGGAUAUCCCACAUUAUUCUGACCCGUGCAAGCUACAUGAGGAUCACCCAUGUGGGAGAAGGUGCGUUAAAGU [Design 2] (Eterna round: R96, puzzle: Exclusion NG 2)",261,164,196,,,
CAUACUCAAGUCAGGAUAUAGUCUCGGAUACGGAACUAGAAGGGACAUGAGGAUCACCCAUGUAGAGAGUAAAG [EX-4 Malc #27] (puzzle: Brourd's mod of Exclusion 4),,,,63.2,37.8,52.2
"CUUGGAGAGGUAGGAUAUUUAUAUUCACACUCUGAUUCUUGUACACAUGAGGAUCACCCAUGUAUAGAGAAGGACUGCCAAGAG [Eternabot solution 48] (Eterna round: R96, puzzle: Exclusion NG 2)",21.6,17.2,21.3,,,
"GGUCAGACGGUAGGAUAUCCAUAUCGAGUGACCUUUUCAUAACAUGAGGAUCACCCAUGUCGGUGGGAGAAGGGCCGUACGGCG [salish99_ExNG02_R04_004] (Eterna round: R96, puzzle: Exclusion NG 2)",114,78.2,93.2,,,
GAGAAGGUAGGAUAUACGAAUAAAAAGGGUAGAAUAAUAACACAUGAGGAUCACCCAUGUAGAAGGACCAAGAG [Mat - Exclusion 2 - Mod of my Tesla design - D20] (puzzle: Exclusion 2),,,,45,25.1,26.5
"AUAAUUAGUUCAGGAUAUCAGCACGUGUAGUGCUGAGAAGGGAACAUGAGGAUCACCCAUGUGAUCAAUAUUAUAAUUUUAAUU [ENG1/12-B3] (Eterna round: R96, puzzle: Exclusion NG 1)",420,925,1190,,,
"AUAAUGUCAGGAUAUCAGUCGUACAGCUUCGGCUGUACGACUGAGAAGGGACAUGAGGAUCACCCAUGUGGUCA [E4/6-A1] (Eterna round: R97, puzzle: Exclusion 4)",61,,50.9,,,
GACUGCCGAGGAUAUACAUGAGGAUCACCCAUGUGCUUCAGCAUCGAAAGAUGCAUGGGUAGAAGGCGGUAGUC [LRO-Excl3-11] (puzzle: Exclusion 3),,,,,25.4,
UAAAUGUGAGGAUAUCAGGUGUGCUAGCGAACUGGUACAUCUGAGAAGGCACAUGAGGAUCACCCAUGUUCCUU [Mat - Exclusion 4 - Mod of JL - D50] (puzzle: Exclusion 4),,,,,16.2,
"AUUGUUUGAUACCUCUAAUACAUGAGGAUCACCCAUGUUAUCGAGGAUAUGCAUUAGAGUGGAUAGCAGAAGGCGAAGUAAUUG [JR_ExcNG3_Sub029] (Eterna round: R96, puzzle: Exclusion NG 3)",13.7,13.4,16.5,,,
"CAGUACAGAGGAUAUACAUGAGGAUCACCCAUGUGUUUCAGCUAGGAGACUAGCGAAAGUAGAAGGCUGUACUA [salish99_ex3_r4_003] (Eterna round: R97, puzzle: Exclusion 3)",25.7,,9.41,,,
"UAGUAUCUGCAGGAUAUCAGUGGAAAACACGUAUGAGAAGGGCAGACAUGAGGAUCACCCAUGUAAAGGGUCCG [BotMod 10 - Jieux - Exclusion 6] (Eterna round: R97, puzzle: Exclusion 6)",541,,173,,,
CCGGAAAUGAAGGAUAUAGGAGUCGAUAGACUCCUAGAAGGUCAUACAUGAGGAUCACCCAUGUGUCCUACCGG [Fiskers Ex 6 - 74] (puzzle: Exclusion 6),,,,,12.9,
